From US12709641B2, “Tau binding compounds” (VOYAGER THERAPEUTICS, INC., dated 2026)
Where a chain is given by its changes, count along the chain named. No end group written: not given here.

Assays:
[1] = target: iPHF (Homo sapiens (Human), UniProt P10636-8); experiment: Octet, antibody on biosensor tips
Method: Anti-human tau antibodies were assessed for affinity for iPHF by Octet (ForteBio, Menlo Park, CA) analysis. Recombinant mouse IgG antibodies were prepared with clone-specific variable domain pairs selected from those presented in Table 3 and mouse IgG1 constant domains. Candidate antibodies were immobilized on biosensor tips (ForteBio) in kinetic buffer (ForteBio). Biosensor tips were then washed before introduction of a solution of iPHF in kinetic buffer for analysis of association and dissociation with candidate antibodies. Affinity measurements (K_D) were obtained using Data Analysis HT version 11.1 and corrected for background and high-frequency noise.

[2] = target: T1, residues 57-72 of human tau (human, also: biotin, site not given here, phosphorylated residues, sites not given here); experiment: Pepscan biotinylated peptides, BLI or colorimetric detection
T1 peptide: EEPGSETSDAKSTPTA
Method: (§1) Recombinant mouse IgG antibodies were prepared with clone-specific variable domain pairs selected from those presented in Table 3 and mouse IgG1 constant domains. Epitope analysis was carried out with different anti-tau antibodies using a peptide scanning approach (e.g., see Verelst, J. et al. Front Mol Biosci. 2020 Mar. 31; 7:48). Libraries of overlapping synthetic biotinylated peptides corresponding to phosphorylated human tau (Pepscan, Lelystad, NL) were obtained and used to coat assay plate wells, each with individual library members. Recombinant mouse IgG antibodies were prepared with clone-specific variable domain pairs selected from those presented in Table 3 and mouse IgG1 constant domains. Antibody binding to peptides in each well was analyzed using colorimetric detection of peptide-antibody complexes with labeled secondary antibody or by associating biotinylated peptides with streptavidin coated biosensors in assay wells and assessing antibody binding by bio-layer interferometry (BLI)-based detection.

[3] = target: T2, residues 175-191 of human tau (human, also: biotin, site not given here, phosphorylated residues, sites not given here); experiment: as above
T2 peptide: TPPAPKTPPSSGEPPKS
Method: as §1

[4] = target: T3, residues 223-238 of human tau (human, also: biotin, site not given here, phosphorylated residues, sites not given here); experiment: as above
T3 peptide: PKKVAVVRTPPKSPSS
Method: as §1

[5] = target: T4, residues 383-400 of human tau (human, also: biotin, site not given here, phosphorylated residues, sites not given here); experiment: as above
T4 peptide: KAKTDHGAEIVYKSPVVS
Method: as §1

[6] = target: T5, enriched paired helical filament tau protein (ePHF) (human, phosphorylated residues of pathological tau, sites not stated); experiment: follow up analysis, method not stated
[7] = target: T5, enriched paired helical filament tau …; experiment: direct ELISA
Method: Variable domain nucleic acid sequences from antibodies obtained from immunizations described above were used to prepare recombinant mouse IgG antibodies. These candidate antibodies were analyzed for binding to ePHF and specificity for ePHF over wild type tau by direct ELISA.
For direct ePHF and wildtype tau ELISA, plates were first coated with ePHF or wild type tau. Antigen solutions were prepared in PBS and 50 μL were pipetted into each well. Plates were covered and incubated for one hour at 37° C. or overnight at 4° C. Plates were then washed and blocked by addition of 150 μl of blocking buffer to each well and incubated one hour at room temperature. Plates were then washed before addition of serially diluted candidate antibody samples prepared in blocking buffer. Detection of candidate antibody binding was carried out by washing plates and adding a solution of enzyme-labeled secondary antibody in blocking buffer to each well. Secondary antibody binding was detected by addition of substrate and spectrophotometric analysis of resulting reaction product.

[8] = target: T6, peptides corresponding with residues 413-430 of human tau (human, also: biotin, position not given here, phosphorylated residues, sites not given here); experiment: Pepscan biotinylated peptides, BLI or colorimetric detection
T6 peptide: STGSIDMVDSPQLATLAD
Method: as §1

B1: V0052 (antibody, V domains shown)
VH: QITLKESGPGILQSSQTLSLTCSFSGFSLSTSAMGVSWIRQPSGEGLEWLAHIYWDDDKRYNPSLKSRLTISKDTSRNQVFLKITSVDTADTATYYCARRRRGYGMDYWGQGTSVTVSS
VL: SIVMTQTPKFLLVSAGDRVTITCKASQSVSNDVAWYQQKPGQSPKLLIYYASNRCTGVPDRFTGSGYGTDFTFTISTVQAEDLAVYFCQQDYRSPLTFGAGTKLELK
Kd [1]: 0.6 nM
Kd [2]: 14 nM
Kd [3]: 7.24 nM
Kd [4]: 2.08 nM
Kd [5]: 12.6 nM
selectivity for ePHF over wild type tau [6]: > 100 fold

B2: V0022 (antibody, V domains shown)
VH: QVQLQQPGTELVKPGSSVNLSCKASGFTFTRYWMHWVKERPGHGLEWIGNINPNNGGTDFNEKFKNKATLTVHKSSTTVFIQLSSLTSEDSAVYYCARGTGTGAMDYWGQGTSVTVSS
VL: DVVMTQTPLSLPVSLGDQASISCRSSQSLVHNNGITYLYWYLQKPGQSPKLLIYRVSNRFSGVPDRFGGSGSGTDFTLKISRVEAEDLGVYFCFQGTHVPRTFGGGTKLEIK
EC50 [7]: 0.07 nM
Kd [1]: 0.3 nM
Kd [8]: 0.306 nM
selectivity for ePHF over wild type tau [6]: > 100 fold

B3: V0023 (antibody, V domains shown)
VH: QVQLQQPGTELVKPGASVKLSCKASGYTFTIFWMHWVKQRPGHGLEWIGKINPNNGGGDYNEKFKSKATLTVDKSSTTAYLQLSSLTSEDSAVYYCARGTGTGAMDYWGQGTSVTVSS
VL: B2 VL with Q18H, N32S, Y37H, K44R, S48T, G68S, R82S, K112E
EC50 [7]: 0.11 nM
Kd [1]: 4 nM
Kd [8]: 0.207 nM
selectivity for ePHF over wild type tau [6]: > 100 fold

B4: V0024 (antibody, V domains shown)
VH: B3 VH with I31R, H43Q, K50N, G58T, Y60N, K63R, K74R, T77S, L81M
VL: B2 VL with N32S, I35N, Y37H, N58S, G68S
Kd [8]: 0.225 nM

B5: V0004 (antibody, V domains shown)
VH: QVQLQQPGAELVKPGASVKLSCKASDYTFTNYWMHWVKQRPGRGLEWIGRIDPNSGGTRYNEKFKNKATLTVDKPSSTAYMHLSSLTSEDSAVYYCAGDFDVWGTGTTVTVSS
VL: DIQMTQSPASLSASVGETVTITCRASGNIHNYLAWYQQRQGKSPQLLVYNAKTLPDGVPSRFSGSGSGTQYSLKINSLQPEDFGSYCCQHFWSTPLTFGAGTKLELK
EC50 [7]: 0.083 nM
Kd [1]: 20 nM
selectivity for ePHF over wild type tau [6]: 100 fold
